Common to all, as to assay: RIA, competition with 125I-Ang-(1-12)
Experiment [1] concerns the target Ang-(1-9). On the procedure: (§1) h-Ang-(1-12) Specificity and Cross-reactivity Assays: For specificity, a synthetic non-radiolabeled h-Ang-(1-12) standard (purity≥98%) was used. Briefly, 200 μL of the RIA buffer (50 mM PBS, 25 mM EDTA, 0.5% triton X-100, 0.05% sodium azide and 0.5% BSA, pH 7.4) containing 50 μL of mAb (1:2,000 dilution of IgG concentration 1.3 mg/mL), 50 μL of 125I-Ang-(1-12) [6-8 fmoles/tube, purity>99%] and 50 μL of different concentrations of non-radiolabeled human Ang-(1-12) peptide (0 to 10,000 fmol/0.2 mL RIA tube) were combined and the RIA tubes were incubated overnight for 20-22 hours at 4° C. At the end of incubation period, 50 μL of 1% γ-globulin were added, mixed, and the bound/free (B/Bo) forms of h-Ang-(1-12) were then separated by precipitating the bound (B) fraction with 200 μL of 23% polyethylene glycol (PEG). The bound and unbound (Bo) traces were separated by centrifuging the tubes at 3,000 rpm for 30 min at 4° C. The radioactivity corresponding to the antibody-bound antigen in the precipitate were measured in a PerkinElmer Wizard2 Gamma Counter. The binding data were analyzed and graphed using a statistical program (GraphPad Prism 8). To examine the cross-reactivity of the mAb with human and rat AGT or AGT-derived angiotensin peptides, several fold higher concentrations (AGT up to 10,000 fmol and angiotensin peptides up to 5,000 fmol) were used. Briefly, in a total of 200 μL of RIA buffer we added 50 μL of h-Ang-(1-12) mAb (1:2,000 dilution), 50 μL of ¹²⁵I-Ang-(1-12) and 50 μL of non-radiolabeled angiotensin peptides [Ang I, ([…]; SEQ ID NO:20); Ang-(1-9), ([…]; SEQ ID NO:23); Ang II, ([…]; SEQ ID NO:21); Ang-(1-7), (DRVYIHP; SEQ ID NO:22) and rat Ang-(1-12), ([…]; SEQ ID NO:24)] or purified AGT protein (10,000 fmol per RIA tube) and after mixing the contents, the RIA tubes were incubated overnight (20-22 hours at 4° C.) and processed as described above.

For experiment [2], the target named is T1, purified rat angiotensinogen (AGT) protein (rat, UniProt P01015 25-477).
T1 construct: also called rat AGT
T1 sequence (looked up): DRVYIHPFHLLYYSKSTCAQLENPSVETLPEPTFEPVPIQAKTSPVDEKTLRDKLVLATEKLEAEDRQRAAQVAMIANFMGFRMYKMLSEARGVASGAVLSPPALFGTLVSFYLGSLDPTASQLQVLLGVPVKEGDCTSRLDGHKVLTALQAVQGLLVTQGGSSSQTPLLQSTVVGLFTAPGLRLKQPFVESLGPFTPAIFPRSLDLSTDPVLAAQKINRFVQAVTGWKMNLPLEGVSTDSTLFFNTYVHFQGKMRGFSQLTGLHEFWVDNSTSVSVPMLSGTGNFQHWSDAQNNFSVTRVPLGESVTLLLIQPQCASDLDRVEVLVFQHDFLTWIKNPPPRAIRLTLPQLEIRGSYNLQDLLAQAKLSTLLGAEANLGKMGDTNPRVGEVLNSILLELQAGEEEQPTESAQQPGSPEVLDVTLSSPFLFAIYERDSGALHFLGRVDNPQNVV
On the procedure:
as §1

Experiment [3] has as its target T2, Angiotensin-(1-7).
T2 construct: also called Ang-(1-7)
T2 peptide: DRVYIHP
The protocol:
as §1

Experiment [4] deals with T3, purified human angiotensinogen (AGT) protein (human, UniProt P01019 25-476).
T3 construct: also called human AGT
T3 sequence (looked up): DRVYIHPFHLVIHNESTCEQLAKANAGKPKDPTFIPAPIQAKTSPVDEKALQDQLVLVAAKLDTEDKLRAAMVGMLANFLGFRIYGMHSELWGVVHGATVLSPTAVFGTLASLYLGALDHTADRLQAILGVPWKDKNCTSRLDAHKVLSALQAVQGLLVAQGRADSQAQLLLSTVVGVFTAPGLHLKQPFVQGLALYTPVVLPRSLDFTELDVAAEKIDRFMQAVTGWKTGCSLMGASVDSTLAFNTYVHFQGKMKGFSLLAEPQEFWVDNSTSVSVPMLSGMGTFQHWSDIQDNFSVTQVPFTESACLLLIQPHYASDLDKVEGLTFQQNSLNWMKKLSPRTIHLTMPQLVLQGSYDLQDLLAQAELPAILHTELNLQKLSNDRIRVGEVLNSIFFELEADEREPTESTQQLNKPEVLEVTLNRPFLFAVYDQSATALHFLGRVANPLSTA
On the procedure:
as §1

B1: h-Ang-(1-12) monoclonal antibody, Clone# 14B3 (Protein L purified mAb IgG) (antibody, V domains shown)
VH: DVQLQESGPGLVKPSQSLSLTCTVNGYSITSDFAWNWIRQFPGNKLEWMGYISYSGNTYYNPSLKSRISITRDTSKNQFFLQLNSVTTEDTATYYCARGSYYFDYWGQGTTLTVSS
VL: DIVMSQSPSSLAVSAGEKVTMSCKSSQSLLNSRTRKNYLAWYQQKPGQSPKLLIYWASTRESGVPDRFTGSGSGTDFTLTISSVQAEDLAVYYCKQSYNLRTFGGGTKLEIK
notes: also called Ang-(1-12)-mAb; h-Ang-(1-12) mAb
Turning to B1, the binding result is “no binding (tested: angiotensin peptides up to 5,000 fmol)” in experiment [1], “no binding (tested: AGT up to 10,000 fmol)” in experiment [2], “no binding (tested: angiotensin peptides up to 5,000 fmol)” in experiment [3] and “no binding (tested: AGT up to 10,000 fmol)” in experiment [4].

The values above are taken from US20220306756A1 (WAKE FOREST UNIVERSITY HEALTH SCIENCES, published 2022).
